The values that follow come from publication PMC6602975.

Test [1] concerns the target Unmodified nucleosome core particle (X. laevis histone octamer on 147 bp Widom-601 DNA) (X. laevis). In words: native gel or EMSA; increasing amounts of Orc1 or Sir3 proteins with 50 or 25 nM nucleosomes; 10 mM Tris pH 7.5, 50 mM NaCl, 2.5% glycerol, 1 mM DTT; room temperature, 30 min; native PAGE 6% (Sir3) or 8% (Orc1), 0.2X TBE; decrease of free nucleosome; apparent KD from a Hill fit.

Test [2] concerns the target H4K16ac nucleosome (X. laevis | not stated). The description is as above.

On to “Orc1 BAH A2P (from UniProt P54784 1-214) (domain or fragment)”, for which, in test [1], the fold loss of affinity compared with the WT domain amounted to 2 fold.
Take “Orc1 BAH E95K (from UniProt P54784 1-214) (domain or fragment)”: the fold loss of affinity in test [1] worked out at 4 fold.
With “Orc1 BAH R202E (from UniProt P54784 1-214) (domain or fragment)”, the fold decrease in affinity compared with the WT domain in test [1] worked out at 4.9 fold.
As for “Sir3 BAH D205Q (from UniProt P06701 1-214) (domain or fragment)”, in test [2], the fold difference in affinity compared with unmodified nucleosome amounted to 4 fold.
